According to US20180155451A1 (published 2018):

T1: FcgRIIa H type extracellular domain, C-terminal His tag (human, UniProt P12318 34-217)
T1 construct: extracellular domain; also called FcγRIIa H; 2aH; not shown: His tag attached to the C terminus
T1 sequence (looked up): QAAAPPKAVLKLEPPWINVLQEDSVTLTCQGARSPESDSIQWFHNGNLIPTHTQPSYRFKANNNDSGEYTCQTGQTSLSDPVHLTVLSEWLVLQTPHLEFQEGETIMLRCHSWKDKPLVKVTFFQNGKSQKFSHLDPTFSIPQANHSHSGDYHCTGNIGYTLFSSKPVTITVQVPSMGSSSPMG

T2: FcgRIIa R type extracellular domain, C-terminal His tag (human, UniProt P12318 34-217)
T2 construct: extracellular domain; also called FcγRIIa R; 2aR; not shown: His tag attached to the C terminus
T2 sequence (looked up): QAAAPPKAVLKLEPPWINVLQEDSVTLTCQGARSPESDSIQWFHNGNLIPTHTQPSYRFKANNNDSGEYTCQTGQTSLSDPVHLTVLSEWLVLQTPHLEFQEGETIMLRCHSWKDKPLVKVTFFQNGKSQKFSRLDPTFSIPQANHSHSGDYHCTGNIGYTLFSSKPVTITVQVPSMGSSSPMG

T3: FcgRIIb extracellular domain, C-terminal His tag (human, UniProt P31994 43-217)
T3 construct: extracellular domain; also called FcγRIIb; 2b; not shown: His tag attached to the C terminus
T3 sequence (looked up): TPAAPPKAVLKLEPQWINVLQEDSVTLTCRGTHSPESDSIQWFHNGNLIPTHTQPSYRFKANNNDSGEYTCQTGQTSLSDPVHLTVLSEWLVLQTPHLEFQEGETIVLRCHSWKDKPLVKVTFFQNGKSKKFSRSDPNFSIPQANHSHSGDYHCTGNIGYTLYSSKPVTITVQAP

B1: H240-FA020/H240-FB083/L73-k0 (antibody, human IgG1, kappa)
heavy 1: QDQLVQSGAEVKKPGASVKVSCKASGFNIKDTYIQWVRQAPGQGLEWMGRIDPLRKQTKYREKFEGRVTITADTSTNTAYMELSSLRSEDTAVYYCVRSGREFDYWGQGTLVTVSSASTKGPSVFPLAPSSKSTSGGTAALGCLVKDYFPEPVTVSWNSGALTSGVHTFPAVLQSSGLYSLSSVVTVPSSSLGTKTYTCNVNHKPSNTKVDKKVEPKSCDKTHTCPPCPAPEYYWGPSVFLFPPKPKDTLMISRTPEVTCVVVDVSDEEPEVKFNWYVDGVEVHNAKTKPREEQYNATYRVVSVLTVLHQDWLNGKEYKCKVSNKALPAPIEKTISKAKGQPREPQVYTLPPSRKEKTKNQVSLTCLVKGFYPSDIAVEWESNGQPENNYKTTPPVLDSDGSFFLYSKLTVDKSRWQQGNVFSCSVMHEALHNRYTQKSLSLSP
heavy 2: QDQLVQSGAEVKKPGASVKVSCKASGFNIKDTYIQWVRQAPGQGLEWMGRIDPLRKQTKYREKFEGRVTITADTSTNTAYMELSSLRSEDTAVYYCVRSGREFDYWGQGTLVTVSSASTKGPSVFPLAPSSKSTSESTAALGCLVEDYFPEPVTVSWNSGALTSGVHTFPAVLQSSGLYSLSSVVTVPSSNFGTQTYTCNVDHKPSNTKVDKTVEPKSCDKTHTCPPCPAPELLGGPSVFLFPPKPKDTLMISRTPEVTCVVVDVSHEEPEVQFNWYVDGVEVHNAETKPREEQYNSTYRVVSVLTVLHQDWLNGKEYKCKVSNDALPMPIEETISKAKGQPREPQVYTLPPSREEMTKNQVSLTCLVKGFYPSDIAVEWESNGQPENNYKTTPPVLDSDGSFFLYSKLTVDKSRWQQGNVFSCSVMHEALHNHYTQESLSLSP
light: DIQMTQSPSSLSASVGDRVTITCRASQDIHKYIAWYQQKPGQAPRLLIQYTSTLQPGVPSRFSGSGSGTDYTFTISSLQPEDIATYYCLQYEQLRTFGGGTKVEIKRTVAAPSVFIFPPSDEQLKSGTASVVCLLNNFYPREAKVQWKVDNALQSGNSQESVTEQDSKDSTYSLSSTLTLSKADYEKHKVYACEVTHQGLSSPVTKSFNRGEC
notes: Heterodimerized anti-epiregulin IgG1 antibody
B2: H240-FA020/H240-FB084/L73-k0 (antibody, human IgG1, kappa)
heavy 1: QDQLVQSGAEVKKPGASVKVSCKASGFNIKDTYIQWVRQAPGQGLEWMGRIDPLRKQTKYREKFEGRVTITADTSTNTAYMELSSLRSEDTAVYYCVRSGREFDYWGQGTLVTVSSASTKGPSVFPLAPSSKSTSGGTAALGCLVKDYFPEPVTVSWNSGALTSGVHTFPAVLQSSGLYSLSSVVTVPSSSLGTKTYTCNVNHKPSNTKVDKKVEPKSCDKTHTCPPCPAPEYYWGPSVFLFPPKPKDTLMISRTPEVTCVVVDVSDEEPEVKFNWYVDGVEVHNAKTKPREEQYNATYRVVSVLTVLHQDWLNGKEYKCKVSNKALPAPIEKTISKAKGQPREPQVYTLPPSRKEKTKNQVSLTCLVKGFYPSDIAVEWESNGQPENNYKTTPPVLDSDGSFFLYSKLTVDKSRWQQGNVFSCSVMHEALHNRYTQKSLSLSP
heavy 2: QDQLVQSGAEVKKPGASVKVSCKASGFNIKDTYIQWVRQAPGQGLEWMGRIDPLRKQTKYREKFEGRVTITADTSTNTAYMELSSLRSEDTAVYYCVRSGREFDYWGQGTLVTVSSASTKGPSVFPLAPSSKSTSESTAALGCLVEDYFPEPVTVSWNSGALTSGVHTFPAVLQSSGLYSLSSVVTVPSSNFGTQTYTCNVDHKPSNTKVDKTVEPKSCDKTHTCPPCPAPELLGGPSVFLFPPKPKDTLMISRTPEVTCVVVDVSHEEPEVQFNWYVDGVEVHNAETKPREEQYNSTYRVVSVLTVLHQDWLNGKEYKCKVSNDALPMPIEETISKAKGQPREPQVYTLPPSREEMTKNQVSLTCLVKGFYPSDIAVEWESEGQPENNYKTTPPVLDSDGSFFLYSKLTVDKSRWQQGNVFSCSVMHEALHNHYTQESLSLSP
light: DIQMTQSPSSLSASVGDRVTITCRASQDIHKYIAWYQQKPGQAPRLLIQYTSTLQPGVPSRFSGSGSGTDYTFTISSLQPEDIATYYCLQYEQLRTFGGGTKVEIKRTVAAPSVFIFPPSDEQLKSGTASVVCLLNNFYPREAKVQWKVDNALQSGNSQESVTEQDSKDSTYSLSSTLTLSKADYEKHKVYACEVTHQGLSSPVTKSFNRGEC
notes: as for B1
B3: H240-FA021/H240-FB082/L73-k0 (antibody, human IgG1, kappa)
heavy 1: QDQLVQSGAEVKKPGASVKVSCKASGFNIKDTYIQWVRQAPGQGLEWMGRIDPLRKQTKYREKFEGRVTITADTSTNTAYMELSSLRSEDTAVYYCVRSGREFDYWGQGTLVTVSSASTKGPSVFPLAPSSKSTSGGTAALGCLVKDYFPEPVTVSWNSGALTSGVHTFPAVLQSSGLYSLSSVVTVPSSSLGTKTYTCNVNHKPSNTKVDKKVEPKSCDKTHTCPPCPAPEYYWGPSVFLFPPKPKDTLMISRTPEVTCVVVDVSDEEPEVKFNWYVDGVEVHNAKTKPREEQYNATYRVVSVLTVLHQDWLNGKEYKCKVSNKALPAPIEKTISKAKGQPREPQVYTLPPSRKEKTKNQVSLTCLVKGFYPSDIAVEWESNGQPENNYKTTPPKLDSDGSFFLYSKLTVDKSRWQQGNVFSCSVMHEALHNRYTQKSLSLSP
heavy 2: QDQLVQSGAEVKKPGASVKVSCKASGFNIKDTYIQWVRQAPGQGLEWMGRIDPLRKQTKYREKFEGRVTITADTSTNTAYMELSSLRSEDTAVYYCVRSGREFDYWGQGTLVTVSSASTKGPSVFPLAPSSKSTSGETAALGCLVEDYFPEPVTVSWNSGALTSGVHTFPAVLQSSGLYSLSSVVTVPSSSLGTQTYICNVNHKPSNTKVDKKVEPKSCDKTHTCPPCPAPELLGGPSVFLFPPKPKDTLMISRTPEVTCVVVDVSHEEPEVQFNWYVDGVEVHNAETKPREEQYNSTYRVVSVLTVLHQDWLNGKEYKCKVSNDALPMPIEETISKAKGQPREPQVYTLPPSREEMTKNQVSLTCLVKGFYPSDIAVEWESEGQPENNYKTTPPVLDSDGSFFLYSKLTVDKSRWQQGNVFSCSVMHEALHNHYTQESLSLSP
light: DIQMTQSPSSLSASVGDRVTITCRASQDIHKYIAWYQQKPGQAPRLLIQYTSTLQPGVPSRFSGSGSGTDYTFTISSLQPEDIATYYCLQYEQLRTFGGGTKVEIKRTVAAPSVFIFPPSDEQLKSGTASVVCLLNNFYPREAKVQWKVDNALQSGNSQESVTEQDSKDSTYSLSSTLTLSKADYEKHKVYACEVTHQGLSSPVTKSFNRGEC
notes: as for B1

What was measured:
Experiment in all cases: SPR (Biacore), antibody captured on chip, FcgR extracellular domain as analyte, 25 C, 1:1 Langmuir fit; experiment #3
[1] = molecular target: T4, FcgRI extracellular domain, C-terminal His tag (human, UniProt P12314 16-292)
T4 construct: extracellular domain; also called FcγRIa; FcgRIa; not shown: His tag attached to the C terminus
Description: (§1) Antibodies of interest were analyzed for the interaction to FcgR according to the method described in Reference Example 8.
(§2) Analysis of interaction between obj ective antibody and the FcγR was carried out using Biacore T100 (GE Healthcare), Biacore T200, Biacore A100, and Biacore 4000. HBS-EP+ (GE Healthcare) was used as the running buffer, and the measurement temperature was set to 25° C. Chips produced by immobilizing the antigen peptide by the amine coupling method to a Series S sensor Chip CM5 (GE Healthcare), chips produced by allowing preliminarily biotinylated antigen peptides to interact with and immobilize onto a Series S Sensor Chip SA (certified) (GE Healthcare), chips produced by immobilizing Protein L (ACTIGEN, BioVision) to Series S Sencor Chip CM5 (GE Healthcare), or chips produced by immobilizing Protein A/G (Thermo Scientific) to Series S Sencor Chip CM5 (GE Healthcare) were used. Antibodies of interest were captured onto these chips, and allowed to interact to each FcγR diluted with running buffer. To regenerate and repeatedly use the chip, the antibodies captured onto the chip were washed off by reacting 10 mM glycine-HCl, pH 1.5.

[2] = molecular target: T1, FcgRIIa H type extracellular domain, …
Description: as §1, §2

[3] = molecular target: T2, FcgRIIa R type extracellular domain, …
Description: as §1, §2

[4] = molecular target: T5, FcgRIIIa V type extracellular domain, C-terminal His tag (human, UniProt P08637 17-208)
T5 construct: extracellular domain; also called FcγRIIIa V; 3aV; not shown: His tag attached to the C terminus
Description: as §1, §2

[5] = molecular target: T6, FcgRIIIa F type extracellular domain, C-terminal His tag (human, UniProt P08637 17-208)
T6 construct: extracellular domain; also called FcγRIIIa F; 3aF; not shown: His tag attached to the C terminus
Description: as §1, §2

[6] = molecular target: T3, FcgRIIb extracellular domain, …
Description: as §1, §2

T6 sequence (P08637 17-208): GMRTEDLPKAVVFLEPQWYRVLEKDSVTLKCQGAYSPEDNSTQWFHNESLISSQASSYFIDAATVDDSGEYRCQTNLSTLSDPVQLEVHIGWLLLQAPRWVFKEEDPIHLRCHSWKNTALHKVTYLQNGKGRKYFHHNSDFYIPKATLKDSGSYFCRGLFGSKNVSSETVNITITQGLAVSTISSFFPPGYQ
T5 sequence (P08637 17-208 F176V limits assumed): as the sequence (P08637 17-208) above, with F160V counted along it
T4 sequence (P12314 16-292): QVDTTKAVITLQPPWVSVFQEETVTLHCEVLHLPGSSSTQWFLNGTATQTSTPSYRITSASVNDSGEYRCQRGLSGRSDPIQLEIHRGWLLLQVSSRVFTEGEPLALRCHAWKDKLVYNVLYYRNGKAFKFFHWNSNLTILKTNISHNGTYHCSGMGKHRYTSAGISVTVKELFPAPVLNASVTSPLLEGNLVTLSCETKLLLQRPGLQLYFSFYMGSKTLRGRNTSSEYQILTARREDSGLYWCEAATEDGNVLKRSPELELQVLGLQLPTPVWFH

| Binder | Kd [1] [nM] | Kd [2] [nM] | Kd [3] [nM] | Kd [4] [nM] | Kd [5] [nM] | Kd [6] [nM] |
| --- | --- | --- | --- | --- | --- | --- |
| B1 | 0.12 | 65 | 230 | 1.1 | 3.4 | 1000 |
| B2 | 0.068 | 57 | 220 | 1 | 3.5 | 1400 |
| B3 | 0.06 | 77 | 230 | 1.5 | 4.2 | 1600 |
